From patent publication US20230312722A1 (NONA BIOSCIENCES SUZHOU, published 2023)

T1: human B7H4 on the cell surface (human, UniProt Q7Z7D3 25-282)
T1 construct: whole, on cells; also called CHOK1/hu B7H4; B7H4 on SK-BR-3
T1 sequence (looked up): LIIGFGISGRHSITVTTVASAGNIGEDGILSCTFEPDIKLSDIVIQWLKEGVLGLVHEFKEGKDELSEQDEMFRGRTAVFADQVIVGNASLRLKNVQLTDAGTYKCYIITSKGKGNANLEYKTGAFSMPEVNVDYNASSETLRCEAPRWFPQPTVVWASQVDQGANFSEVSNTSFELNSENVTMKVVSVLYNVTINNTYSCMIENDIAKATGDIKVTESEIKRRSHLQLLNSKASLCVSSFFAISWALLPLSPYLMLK

B1: PR002849 (bispecific antibody, human IgG1, kappa, L234A L235A)
light: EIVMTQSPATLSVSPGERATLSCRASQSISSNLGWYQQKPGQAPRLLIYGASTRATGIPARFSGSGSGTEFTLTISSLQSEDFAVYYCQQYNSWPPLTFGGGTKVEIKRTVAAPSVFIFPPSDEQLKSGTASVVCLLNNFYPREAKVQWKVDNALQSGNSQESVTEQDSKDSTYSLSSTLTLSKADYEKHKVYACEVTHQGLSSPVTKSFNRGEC
heavy: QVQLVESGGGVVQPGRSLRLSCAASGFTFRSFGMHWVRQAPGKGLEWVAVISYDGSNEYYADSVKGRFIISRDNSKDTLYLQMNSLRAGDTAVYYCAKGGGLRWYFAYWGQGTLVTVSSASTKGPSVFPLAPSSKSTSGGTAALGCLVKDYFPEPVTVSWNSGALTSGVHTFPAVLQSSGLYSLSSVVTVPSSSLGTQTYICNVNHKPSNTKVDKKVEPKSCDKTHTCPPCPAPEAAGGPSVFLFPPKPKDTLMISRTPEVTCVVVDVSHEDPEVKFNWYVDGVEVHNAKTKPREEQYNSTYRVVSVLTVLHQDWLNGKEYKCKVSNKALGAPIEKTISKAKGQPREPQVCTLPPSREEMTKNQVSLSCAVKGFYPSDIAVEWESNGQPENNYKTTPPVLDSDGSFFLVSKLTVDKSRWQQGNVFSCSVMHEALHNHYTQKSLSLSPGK
chain: QAVVTQEPSLTVSPGGTVTLTCRSSTGAVTTSNYANWVQQKPGQAPRGLIGGTNKRAPWTPARFSGSLLGDKAALTLLGAQPEDEAEYFCALWYSNLWVFGGGTKLTVLGGGQSGQGGSGGGGSEVQLVESGGGLVQPGGSLKLSCAASGFTFNTYAMNWVRQASGKGLEWVGRIRSKYNNYATYYADSVKDRFTISRDDSKSTLYLQMNSLKTEDTAVYYCVRHGNFGNSYVSWFAYWGQGTLVTVSSASEPKSSDKTHTCPPCPAPEAAGGPSVFLFPPKPKDTLMISRTPEVTCVVVDVSHEDPEVKFNWYVDGVEVHNAKTKPREEQYNSTYRVVSVLTVLHQDWLNGKEYKCKVSNKALGAPIEKTISKAKGQPREPQVYTLPPCREEMTKNQVSLWCLVKGFYPSDIAVEWESNGQPENNYKTTPPVLDSDGSFFLYSKLTVDKSRWQQGNVFSCSVMHEALHNHYTQKSLSLSPGK
notes: B7H4 x CD3, 1+1 Fab-Fc-scFv (structure 1): B7H4 Fab from PR001476 (hole, AAG), CD3 scFv(VL-VH)-Fc from PR000627 (knob, AAG)
B2: PR002851 (bispecific antibody, human IgG1, kappa, L234A L235A)
light: not shown
heavy: not shown
chain: B1 chain
notes: B7H4 x CD3, 1+1 Fab-Fc-scFv (structure 1): B7H4 Fab from PR002408, CD3 scFv-Fc from PR000627
B3: PR002850 (bispecific antibody, human IgG1, kappa, L234A L235A)
light: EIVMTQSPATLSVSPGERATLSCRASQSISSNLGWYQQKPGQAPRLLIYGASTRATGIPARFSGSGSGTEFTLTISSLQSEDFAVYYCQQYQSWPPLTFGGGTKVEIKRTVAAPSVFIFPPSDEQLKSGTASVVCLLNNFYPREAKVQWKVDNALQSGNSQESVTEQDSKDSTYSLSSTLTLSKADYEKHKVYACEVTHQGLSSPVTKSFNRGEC
heavy: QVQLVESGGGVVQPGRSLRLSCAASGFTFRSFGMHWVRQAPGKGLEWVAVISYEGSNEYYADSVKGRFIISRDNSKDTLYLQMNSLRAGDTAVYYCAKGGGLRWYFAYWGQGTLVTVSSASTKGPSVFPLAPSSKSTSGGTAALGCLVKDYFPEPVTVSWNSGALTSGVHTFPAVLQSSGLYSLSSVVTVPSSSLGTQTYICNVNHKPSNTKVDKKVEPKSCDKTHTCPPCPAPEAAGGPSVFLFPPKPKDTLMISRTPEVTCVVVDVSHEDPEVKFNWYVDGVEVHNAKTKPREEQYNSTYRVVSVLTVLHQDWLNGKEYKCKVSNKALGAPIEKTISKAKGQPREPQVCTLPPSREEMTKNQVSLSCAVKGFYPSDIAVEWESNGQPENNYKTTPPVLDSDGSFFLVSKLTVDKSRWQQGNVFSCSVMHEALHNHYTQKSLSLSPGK
chain: B1 chain
notes: B7H4 x CD3, 1+1 Fab-Fc-scFv (structure 1): B7H4 Fab from PR002405, CD3 scFv-Fc from PR000627
B4: PR002855 (bispecific antibody, human IgG1, kappa, lambda, L234A L235A)
chain 1: EVQLLESGGGLVQPGGSLRLSCAASGFTFSTYAMNWVRQAPGKGLEWVSRIRSKYNNYATYYADSVKDRFTISRDDSKSTLYLQMNSLRAEDTAVYYCVRHGNFGNSYVSWFAYWGQGTLVTVSSASTKGPSVFPLAPSSKSTSGGTAALGCLVKDYFPEPVTVSWNSGALTSGVHTFPAVLQSSGLYSLSSVVTVPSSSLGTQTYICNVNHKPSNTKVDKKVEPKSC
chain 2: QAVVTQEPSLTVSPGGTVTLTCRSSTGAVTTSNYANWVQQKPGQAPRGLIGGTNKRAPWTPARFSGSLLGDKAALTLLGAQPEDEAEYFCALWYSNLWVFGGGTKLTVLGQPKAAPSVTLFPPSSEELQANKATLVCLISDFYPGAVTVAWKADSSPVKAGVETTTPSKQSNNKYAASSYLSLTPEQWKSHRSYSCQVTHEGSTVEKTVAPTECSDKTHTCPPCPAPEAAGGPSVFLFPPKPKDTLMISRTPEVTCVVVDVSHEDPEVKFNWYVDGVEVHNAKTKPREEQYNSTYRVVSVLTVLHQDWLNGKEYKCKVSNKALGAPIEKTISKAKGQPREPQVYTLPPCREEMTKNQVSLWCLVKGFYPSDIAVEWESNGQPENNYKTTPPVLDSDGSFFLYSKLTVDKSRWQQGNVFSCSVMHEALHNHYTQKSLSLSPGK
heavy: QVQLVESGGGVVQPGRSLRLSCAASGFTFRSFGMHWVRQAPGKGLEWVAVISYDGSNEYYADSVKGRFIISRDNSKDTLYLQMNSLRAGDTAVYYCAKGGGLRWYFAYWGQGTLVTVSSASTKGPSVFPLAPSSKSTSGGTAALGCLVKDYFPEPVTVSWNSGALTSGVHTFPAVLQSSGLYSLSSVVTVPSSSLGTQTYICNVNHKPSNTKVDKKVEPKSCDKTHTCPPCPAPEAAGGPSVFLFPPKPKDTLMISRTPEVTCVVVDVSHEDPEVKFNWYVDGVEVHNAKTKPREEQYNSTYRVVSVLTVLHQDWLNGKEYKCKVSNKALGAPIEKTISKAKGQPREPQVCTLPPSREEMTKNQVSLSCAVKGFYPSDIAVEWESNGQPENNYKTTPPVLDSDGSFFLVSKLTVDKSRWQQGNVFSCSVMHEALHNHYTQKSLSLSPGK
light: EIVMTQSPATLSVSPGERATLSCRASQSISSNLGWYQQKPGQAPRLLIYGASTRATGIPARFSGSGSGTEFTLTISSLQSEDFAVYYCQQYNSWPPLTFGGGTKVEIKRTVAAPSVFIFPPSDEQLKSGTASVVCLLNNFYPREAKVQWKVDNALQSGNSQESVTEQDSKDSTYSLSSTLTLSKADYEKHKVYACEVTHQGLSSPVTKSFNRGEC
notes: B7H4 x CD3, 1+1 Fab-Fc-crossFab (structure 4): CD3 Fab(cross Fd/LC) from PR001924 (chains 1 and 2), B7H4 Fab from PR001476 (chains 3 and 4)
B5: PR002987 (bispecific antibody, human IgG1, kappa, lambda, L234A L235A)
chain 1: B4 chain 1
chain 2: not shown
heavy: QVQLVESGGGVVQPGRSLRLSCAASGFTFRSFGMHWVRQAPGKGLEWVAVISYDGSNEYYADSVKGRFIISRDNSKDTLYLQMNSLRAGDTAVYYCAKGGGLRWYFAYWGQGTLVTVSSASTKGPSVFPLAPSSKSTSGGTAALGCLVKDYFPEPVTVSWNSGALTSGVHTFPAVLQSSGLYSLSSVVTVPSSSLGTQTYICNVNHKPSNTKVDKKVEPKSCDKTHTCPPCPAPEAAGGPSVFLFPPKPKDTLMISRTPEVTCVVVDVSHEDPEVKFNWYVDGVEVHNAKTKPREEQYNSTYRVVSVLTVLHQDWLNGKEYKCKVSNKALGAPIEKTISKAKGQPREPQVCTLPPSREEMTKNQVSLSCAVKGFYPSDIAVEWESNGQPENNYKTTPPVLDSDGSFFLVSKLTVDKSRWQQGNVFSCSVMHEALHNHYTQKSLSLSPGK
light: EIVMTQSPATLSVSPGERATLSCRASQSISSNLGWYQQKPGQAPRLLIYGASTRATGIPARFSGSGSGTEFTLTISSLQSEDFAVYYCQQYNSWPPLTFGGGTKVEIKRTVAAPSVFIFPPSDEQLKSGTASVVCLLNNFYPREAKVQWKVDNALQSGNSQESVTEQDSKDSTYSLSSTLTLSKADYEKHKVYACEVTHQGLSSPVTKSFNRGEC
notes: B7H4 x CD3, 2+1 asymmetric structure (structure 5): CD3 end from PR001924, two B7H4 Fabs from PR001476
B6: PR002857 (bispecific antibody, human IgG1, kappa, lambda, L234A L235A)
chain 1: B4 chain 1
chain 2: B4 chain 2
heavy: not shown
light: not shown
notes: B7H4 x CD3, 1+1 Fab-Fc-crossFab (structure 4): CD3 crossFab from PR001924, B7H4 Fab from PR002408
B7: PR002856 (bispecific antibody, human IgG1, kappa, lambda, L234A L235A)
chain 1: B4 chain 1
chain 2: B4 chain 2
heavy: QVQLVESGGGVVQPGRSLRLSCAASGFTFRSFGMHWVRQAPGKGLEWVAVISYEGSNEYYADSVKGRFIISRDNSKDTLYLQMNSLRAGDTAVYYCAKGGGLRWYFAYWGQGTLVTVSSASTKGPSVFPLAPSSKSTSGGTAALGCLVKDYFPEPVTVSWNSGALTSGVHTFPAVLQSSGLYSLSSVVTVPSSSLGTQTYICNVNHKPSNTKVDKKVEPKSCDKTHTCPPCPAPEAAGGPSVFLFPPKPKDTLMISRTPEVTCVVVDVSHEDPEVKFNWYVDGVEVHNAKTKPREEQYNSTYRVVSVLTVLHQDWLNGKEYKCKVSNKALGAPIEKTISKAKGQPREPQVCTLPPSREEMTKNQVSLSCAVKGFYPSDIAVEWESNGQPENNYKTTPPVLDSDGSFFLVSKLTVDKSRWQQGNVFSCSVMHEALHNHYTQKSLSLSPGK
light: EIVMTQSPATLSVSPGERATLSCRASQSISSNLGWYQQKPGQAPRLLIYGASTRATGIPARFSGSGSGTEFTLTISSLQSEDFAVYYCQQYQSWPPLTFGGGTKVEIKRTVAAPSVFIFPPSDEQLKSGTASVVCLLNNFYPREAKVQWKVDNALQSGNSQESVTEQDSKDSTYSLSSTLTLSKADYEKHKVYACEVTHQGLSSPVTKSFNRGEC
notes: B7H4 x CD3, 1+1 Fab-Fc-crossFab (structure 4): CD3 crossFab from PR001924, B7H4 Fab from PR002405
B8: PR003733 (bispecific antibody, human IgG1, lambda, L234A L235A)
light: QAVVTQEPSLTVSPGGTVTLTCRSSTGAVTTSNYANWVQQKPGQAPRGLIGGTNKRAPWTPARFSGSLLGDKAALTLLGAQPEDEAEYFCALWYSNLWVFGGGTKLTVLGQPKAAPSVTLFPPSSEELQANKATLVCLISDFYPGAVTVAWKADSSPVKAGVETTTPSKQSNNKYAASSYLSLTPEQWKSHRSYSCQVTHEGSTVEKTVAPTECS
heavy: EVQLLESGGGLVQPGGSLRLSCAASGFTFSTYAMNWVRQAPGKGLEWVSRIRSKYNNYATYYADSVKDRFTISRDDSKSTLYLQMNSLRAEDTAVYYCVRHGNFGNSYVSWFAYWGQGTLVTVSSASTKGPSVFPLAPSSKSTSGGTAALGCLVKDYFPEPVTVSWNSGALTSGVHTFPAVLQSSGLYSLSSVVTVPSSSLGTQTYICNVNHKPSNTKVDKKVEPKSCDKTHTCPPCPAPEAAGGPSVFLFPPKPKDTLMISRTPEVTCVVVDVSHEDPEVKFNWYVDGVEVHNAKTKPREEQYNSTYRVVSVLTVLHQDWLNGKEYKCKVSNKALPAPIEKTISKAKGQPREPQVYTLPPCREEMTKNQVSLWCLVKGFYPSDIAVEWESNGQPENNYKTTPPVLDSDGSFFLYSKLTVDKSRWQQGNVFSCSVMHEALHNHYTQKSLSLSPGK
chain: EIVMTQSPASLSVSPGERATLSCRASQSVSSNLAWYQQKPGQAPRLLIYGASTRATGIPARVSGGGSGTEFTLTISSLQSEDFAVYYCQQYKNWPFTFGPGTKLEIKGGGGSGGGGSGGGGSGGGGSQVQLVQSGAEVKKPGSSMRVSCKASEDTFSSYAISWVRQAPGQGLEWMGGTAPIFGTTNYAQKFQGRVTITADKSTSTAYMELSSLRSEDTAVYYCARGGPYFDYWGQGTLVTVSSASEPKSSDKTHTCPPCPAPEAAGGPSVFLFPPKPKDTLMISRTPEVTCVVVDVSHEDPEVKFNWYVDGVEVHNAKTKPREEQYNSTYRVVSVLTVLHQDWLNGKEYKCKVSNKALPAPIEKTISKAKGQPREPQVCTLPPSREEMTKNQVSLSCAVKGFYPSDIAVEWESNGQPENNYKTTPPVLDSDGSFFLVSKLTVDKSRWQQGNVFSCSVMHEALHNHYTQKSLSLSPGK
notes: B7H4 x CD3, 1+1 Fab-Fc-scFv: CD3 Fab from PR001848 (knob, LALA; strong CD3 end), B7H4 scFv(VL-VH)-Fc (hole, LALA)
B9: PR003899 (bispecific antibody, human IgG1, lambda, L234A L235A)
light: B8 light
heavy: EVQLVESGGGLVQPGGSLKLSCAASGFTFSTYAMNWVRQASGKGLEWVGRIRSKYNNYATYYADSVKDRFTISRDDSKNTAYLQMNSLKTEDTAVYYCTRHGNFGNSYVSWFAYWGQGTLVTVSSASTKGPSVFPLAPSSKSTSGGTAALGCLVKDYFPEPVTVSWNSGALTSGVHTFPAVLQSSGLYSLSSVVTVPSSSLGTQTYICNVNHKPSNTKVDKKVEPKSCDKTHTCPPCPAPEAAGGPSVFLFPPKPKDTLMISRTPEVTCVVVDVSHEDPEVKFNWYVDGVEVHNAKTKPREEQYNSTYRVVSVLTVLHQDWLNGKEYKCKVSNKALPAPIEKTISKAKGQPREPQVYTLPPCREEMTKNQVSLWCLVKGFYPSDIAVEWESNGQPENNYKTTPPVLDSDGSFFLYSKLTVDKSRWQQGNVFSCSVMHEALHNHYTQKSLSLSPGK
chain: B8 chain
notes: B7H4 x CD3, 1+1 Fab-Fc-scFv: CD3 Fab from PR003886 (knob, LALA; weak CD3 end), B7H4 scFv(VL-VH)-Fc (hole, LALA)

These binders were tested against T2, CD3 on human T cells (human, UniProt P07766 23-207; P04234 22-171; P09693 23-182) (assay: FACS on human T cells; EC50 printed as n.d., curve still rising at 100 nM).
Procedure: (§1) SK-BR-3 cells were digested. T cells were isolated using the human T cell isolation kit (Miltenyi, #130-096-535) as described in the method of the instruction, and resuspended with PBS containing 2% BSA. The cell density was adjusted to 1×10⁶ cells/mL. The cells were seeded in a 96-well V-bottom plate (Corning, #3894) at 100 μL/well, followed by the addition of test antibodies diluted in a 3-fold gradient at a concentration that was 2 times the final concentration, each at 100 μL/well. The cells were incubated at 4° C. for 2 h away from light. Thereafter, the cells in each well were rinsed twice with 100 μL of pre-cooled PBS containing 2% BSA, and centrifuged at 500 g at 4° C. for 5 min, and then the supernatant was discarded. Then each well was added with 100 μL of fluorescent secondary antibody (Alexa Fluor 488-conjugated AffiniPure Goat Anti-Human IgG, Fcγ Fragment Specific, Jackson, #109-545-098, diluted in a 1:500 ratio), and the plate was incubated away from light at 4° C. for 1 h. The cells in each well were washed twice with 100 μL of pre-cooled PBS containing 2% BSA, and centrifuged at 500 g at 4° C. for 5 minutes, and then the supernatant was discarded. Finally, the cells in each well were resuspended with 200 μL of pre-cooled PBS containing 2% BSA, and the fluorescence signal values were read using an ACEA Novocyte3000 flow cytometer.

T2 sequence (P07766 23-207 limits assumed, chain 1 of 3): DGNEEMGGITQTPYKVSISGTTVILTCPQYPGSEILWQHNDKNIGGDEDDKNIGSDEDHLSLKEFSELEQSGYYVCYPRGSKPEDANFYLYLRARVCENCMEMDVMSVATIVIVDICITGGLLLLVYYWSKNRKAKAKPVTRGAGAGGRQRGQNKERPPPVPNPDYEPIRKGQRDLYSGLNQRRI
T2 sequence (P04234 22-171 limits assumed, chain 2 of 3): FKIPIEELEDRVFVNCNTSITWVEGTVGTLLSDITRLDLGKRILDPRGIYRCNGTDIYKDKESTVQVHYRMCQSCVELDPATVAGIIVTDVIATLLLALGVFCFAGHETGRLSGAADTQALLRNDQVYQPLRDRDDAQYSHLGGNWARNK
T2 sequence (P09693 23-182 limits assumed, chain 3 of 3): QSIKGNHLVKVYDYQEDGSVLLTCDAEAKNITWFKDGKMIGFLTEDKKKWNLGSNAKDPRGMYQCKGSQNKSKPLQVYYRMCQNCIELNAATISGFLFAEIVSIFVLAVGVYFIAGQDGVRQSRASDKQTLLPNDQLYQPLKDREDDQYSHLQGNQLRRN

| Maximum MFI | Binder |
| --- | --- |
| 121000 | B1 |
| 125000 | B2 |
| 133000 | B3 |
| 197000 | B4 |
| 73600 | B5 |
| 187000 | B6 |
| 189000 | B7 |

Each binder was assayed against T1, human B7H4 on the cell surface (assay: FACS on SK-BR-3 cells).
Procedure: as §1

| EC50 | Maximum MFI | Binder |
| --- | --- | --- |
| 0.933 nM | 146000 | B1 |
| 0.676 nM | 179000 | B3 |
| 4.05 nM | 179000 | B4 |
| 0.145 nM | 193000 | B5 |
| 1.32 nM | 212000 | B7 |
| 71.2 nM | 214000 | B8 |
| 51.2 nM | 227000 | B9 |

What follows are binders tested against T2, CD3 on human T cells (assay: FACS on human T cells).
Procedure: as §1

| binding result | Binder |
| --- | --- |
| no binding (tested: 100 nM) | B9 |
